The supplement of paper PMC5998384

Tests used:
HeLa Kyoto [1] = experiment: solubility in G1/S (NP-40 vs SDS abundance) (log2 ratio); higher = more soluble; conditions: cell cycle stage: G1/S
HeLa Kyoto [2] = experiment: thermal stability score vs G1/S (z-score of summed log2 fold changes over temperatures); higher = more thermally stable than in G1/S
HeLa Kyoto [3] = experiment: solubility change mitosis vs G1/S (difference of NP-40 vs SDS log2 ratios) (log2 ratio difference); higher = more soluble in mitosis
HeLa Kyoto [4] = experiment: melting temperature (median over replicates), in situ; higher = more thermally stable
[5] = cell cycle stage: early G1 (4.5 h after nocodazole release)
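Throughout, for melting temperature (median over replicates), in situ: HeLa Kyoto cells synchronized by double thymidine or nocodazole block, proteins quantified by TMT10plex mass spectrometry, three independent biological replicates.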
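Throughout, for solubility change mitosis vs G1/S (difference of NP-40 vs SDS log2 ratios): synchronized HeLa Kyoto cells (double thymidine block for G1/S, nocodazole release for mitosis), protein amounts in NP-40 versus SDS lysates quantified by mass spectrometry, three biological replicates.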
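Throughout, for solubility in G1/S (NP-40 vs SDS abundance): HeLa Kyoto cells arrested at G1/S by double thymidine block, proteins quantified by TMT10plex mass spectrometry in mild NP-40 versus SDS extracts, three biological replicates.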
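Throughout, for thermal stability score vs G1/S (z-score of summed log2 fold changes over temperatures): synchronized HeLa Kyoto cells, proteins quantified by TMT10plex mass spectrometry, three biological replicates, mitosis taken 0.5 h after nocodazole release, G1/S directly after double thymidine block.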

PRSS21, sequence (chain, as listed by the source): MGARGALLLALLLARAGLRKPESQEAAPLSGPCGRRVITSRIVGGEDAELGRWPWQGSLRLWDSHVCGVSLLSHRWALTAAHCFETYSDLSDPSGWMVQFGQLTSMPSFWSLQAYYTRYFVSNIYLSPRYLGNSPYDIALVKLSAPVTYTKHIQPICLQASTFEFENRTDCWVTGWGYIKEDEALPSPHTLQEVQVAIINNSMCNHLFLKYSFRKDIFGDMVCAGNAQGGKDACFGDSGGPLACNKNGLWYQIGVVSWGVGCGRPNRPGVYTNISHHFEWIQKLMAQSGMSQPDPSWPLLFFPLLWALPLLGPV

Substance	solubility in G1/S (log2) (HeLa Kyoto [1])	thermal stability score (HeLa Kyoto [2]; [5])	thermal stability score (HeLa Kyoto [2]; cell cycle stage: mitosis)	solubility change mitosis (log2) (HeLa Kyoto [3])	melting temperature (HeLa Kyoto [4]; cell cycle stage: G1/S) [°C]	melting temperature (HeLa Kyoto [4]; cell cycle stage: mitosis) [°C]
MAGAAPRVRYLAGFCCPLGGLAAGKPRVLCHEAEVFLSTGSELVYVYDQEGGLLTAAFRFPDQVWHLELLAPRRLLYALCARRGLYCLSLDHPGRSRSTSQDDRDSEDGDQPSPVIPVDPDACILPDAALCAFTLLDSVLVTLVQGPARWKMQLFEQPCPGEDPRPGGQIGEVELSSYTPPAGVPGKPAAPHFLPVLCSVSPSGSRVPHDLLGGSGGFTLEDALFGLLFGADATLLQSPVVLCGLPDGQLCCVILKALVTSRSAPGDPNALVKILHHLEEPVIFIGALKTEPQAAEAAENFLPDEDVHCDCLVAFGHHGRMLAIKASWDESGKLVPELREYCLPGPVLCAACGGGGRVYHSTPSDLCVVDLSRGSTPLGPEQPEEGPGGLPPMLCPASLNICSVVSLSASPRTHEGGTKLLALSAKGRLMTCSLDLDSEMPGPARMTTESAGQKIKELLSGIGNISERVSFLKKAVDQRNKALTSLNEAMNVSCALLSSGTGPRPISCTTSTTWSRLQTQDVLMATCVLENSSSFSLDQGWTLCIQVLTSSCALDLDSACSAITYTIPVDQLGPGARREVTLPLGPGENGGLDLPVTVSCTLFYSLREVVGGALAPSDSEDPFLDECPSDVLPEQEGVCLPLSRHTVDMLQCLRFPGLAPPHTRAPSPLGPTRDPVATFLETCREPGSQPAGPASLRAEYLPPSVASIKVSAELLRAALKDGHSGVPLCCATLQWLLAENAAVDVVRARALSSIQGVAPDGANVHLIVREVAMTDLCPAGPIQAVEIQVESSSLADICRAHHAVVGRMQTMVTEQATQGSSAPDLRVQYLRQIHANHETLLREVQTLRDRLCTEDEASSCATAQRLLQVYRQLRHPSLILL [FAAP100]	0.0643	-0.383	0.0611	-0.00216	54	52.6
MADIIARLREDGIQKRVIQEGRGELPDFQDGTKATFHYRTLHSDDEGTVLDDSRARGKPMELIIGKKFKLPVWETIVCTMREGEIAQFLCDIKHVVLYPLVAKSLRNIAVGKDPLEGQRHCCGVAQMREHSSLGHADLDALQQNPQPLIFHMEMLKVESPGTYQQDPWAMTDEEKAKAVPLIHQEGNRLYREGHVKEAAAKYYDAIACLKNLQMKEQPGSPEWIQLDQQITPLLLNYCQCKLVVEEYYEVLDHCSSILNKYDDNVKAYFKRGKAHAAVWNAQEAQADFAKVLELDPALAPVVSRELRALEARIRQKDEEDKARFRGIFSH [AIP]	0.556	1.14	1.52	-0.0524	49.3	50.3
TPM4	0.907	-0.98	-3.48	0.532	55.8	–
MSDEEARQSGGSSQAGVVTVSDVQELMRRKEEIEAQIKANYDVLESQKGIGMNEPLVDCEGYPRSDVDLYQVRTARHNIICLQNDHKAVMKQVEEALHQLHARDKEKQARDMAEAHKEAMSRKLGQSESQGPPRAFAKVNSISPGSPASIAGLQVDDEIVEFGSVNTQNFQSLHNIGSVVQHSEGKPLNVTVIRRGEKHQLRLVPTRWAGKGLLGCNIIPLQR [PSMD9]	0.431	-2.77	-3.23	0.112	55.8	55.7
MGGKLSKKKKGYNVNDEKAKEKDKKAEGAATEEEGTPKESEPQAAAEPAEAKEGKEKPDQDAEGKAEEKEGEKDAAAAKEEAPKAEPEKTEGAAEAKAEPPKAPEQEQAAPGPAAGGEAPKAAEAAAAPAESAAPAAGEEPSKEEGEPKKTEAPAAPAAQETKSDGAPASDSKPGSSEAAPSSKETPAATEAPSSTPKAQGPAASAEEPKPVEAPAANSDQTVTVKE [BASP1]	-1.08	-5.91	-9.69	0.98	48.2	–
MNYDSQQPPLPPLPYAGCRRASGFPALGRGGTVPVGVWGGAGQGREGRSWGEGPRGPGLGRRDLSSADPAVLGATMESRCYGCAVKFTLFKKEYGCKNCGRAFCSGCLSFSAAVPRTGNTQQKVCKQCHEVLTRGSSANASKWSPPQNYKKRVAALEAKQKPSTSQSQGLTRQDQMIAERLARLRQENKPKLVPSQAEIEARLAALKDERQGSIPSTQEMEARLAALQGRVLPSQTPQPAHHTPDTRTQAQQTQDLLTQLAAEVAIDESWKGGGPAASLQNDLNQGGPGSTNSKRQANWSLEEEKSRLLAEAALELREENTRQERILALAKRLAMLRGQDPERVTLQDYRLPDSDDDEDEETAIQRVLQQLTEEASLDEASGFNIPAEQASRPWTQPRGAEPEAQDVDPRPEAEEEELPWCCICNEDATLRCAGCDGDLFCARCFREGHDAFELKEHQTSAYSPPRAGQEH [ZFYVE19]	0.428	-2.39	-1.86	-0.237	54.2	52.9
MASTNAESQLQRIIRDLQDAVTELSKEFQEAGEPITDDSTSLHKFSYKLEYLLQFDQKEKATLLGNKKDYWDYFCACLAKVKGANDGIRFVKSISELRTSLGKGRAFIRYSLVHQRLADTLQQCFMNTKVTSDWYYARSPFLQPKLSSDIVGQLYELTEVQFDLASRGFDLDAAWPTFARRTLTTGSSAYLWKPPSRSSSMSSLVSSYLQTQEMVSNFDLNSPLNNEALEGFDEMRLELDQLEVREKQLRERMQQLDRENQELRAAVSQQGEQLQTERERGRTAAEDNVRLTCLVAELQKQWEVTQATQNTVKELQTCLQGLELGAAEKEEDYHTALRRLESMLQPLAQELEATRDSLDKKNQHLASFPGWLAMAQQKADTASDTKGRQEPIPSDAAQEMQELGEKLQALERERTKVEEVNRQQSAQLEQLVKELQLKEDARASLERLVKEMAPLQEELSGKGQEADQLWRRLQELLAHTSSWEEELAELRREKKQQQEEKELLEQEVRSLTRQLQFLETQLAQVSQHVSDLEEQKKQLIQDKDHLSQQVGMLERLAGPPGPELPVAGEKNEALVPVNSSLQEAWGKPEEEQRGLQEAQLDDTKVQEGSQEEELRQANRELEKELQNVVGRNQLLEGKLQALQADYQALQQRESAIQGSLASLEAEQASIRHLGDQMEASLLAVRKAKEAMKAQMAEKEAILQSKEGECQQLREEVEQCQQLAEARHRELRALESQCQQQTQLIEVLTAEKGQQGVGPPTDNEARELAAQLALSQAQLEVHQGEVQRLQAQVVDLQAKMRAALDDQDKVQSQLSMAEAVLREHKTLVQQLKEQNEALNRAHVQELLQCSEREGALQEERADEAQQREEELRALQEELSQAKCSSEEAQLEHAELQEQLHRANTDTAELGIQVCALTVEKERVEEALACAVQELQDAKEAASREREGLERQVAGLQQEKESLQEKLKAAKAAAGSLPGLQAQLAQAEQRAQSLQEAAHQELNTLKFQLSAEIMDYQSRLKNAGEECKSLRGQLEEQGRQLQAAEEAVEKLKATQADMGEKLSCTSNHLAECQAAMLRKDKEGAALREDLERTQKELEKATTKIQEYYNKLCQEVTNRERNDQKMLADLDDLNRTKKYLEERLIELLRDKDALWQKSDALEFQQKLSAEERWLGDTEANHCLDCKREFSWMVRRHHCRICGRIFCYYCCNNYVLSKHGGKKERCCRACFQKLSEGPGSPDSSGSGTSQGEPSPALSPASPGPQATGGQGANTDYRPPDDAVFDIITDEELCQIQESGSSLPETPTETDSLDPNAAEQDTTSTSLTPEDTEDMPVGQDSEICLLKSGELMIKVPLTVDEIASFGEGSRELFVRSSTYSLIPITVAEAGLTISWVFSSDPKSISFSVVFQEAEDTPLDQCKVLIPTTRCNSHKENIQGQLKVRTPGIYMLIFDNTFSRFVSKKVFYHLTVDRPVIYDGSDFL [FYCO1]	0.0536	-0.119	0.0455	-0.142	51.3	51
MDAALKRSRSEEPAEILPPARDEEEEEEEGMEQGLEEEEEVDPRIQGELEKLNQSTDDINRRETELEDARQKFRSVLVEATVKLDELVKKIGKAVEDSKPYWEARRVARQAQLEAQKATQDFQRATEVLRAAKETISLAEQRLLEDDKRQFDSAWQEMLNHATQRVMEAEQTKTRSELVHKETAARYNAAMGRMRQLEKKLKRAINKSKPYFELKAKYYVQLEQLKKTVDDLQAKLTLAKGEYKMALKNLEMISDEIHERRRSSAMGPRGCGVGAEGSSTSVEDLPGSKPEPDAISVASEAFEDDSCSNFVSEDDSETQSVSSFSSGPTSPSEMPDQFPAVVRPGSLDLPSPVSLSEFGMMFPVLGPRSECSGASSPECEVERGDRAEGAENKTSDKANNNRGLSSSSGSGGSSKSQSSTSPEGQALENRMKQLSLQCSKGRDGIIADIKMVQIG [SH3BP5]	0.134	-1.02	-0.824	-0.0509	53.2	52
MVSIPEYYEGKNVLLTGATGFLGKVLLEKLLRSCPKVNSVYVLVRQKAGQTPQERVEEVLSGKLFDRLRDENPDFREKIIAINSELTQPKLALSEEDKEVIIDSTNIIFHCAATVRFNENLRDAVQLNVIATRQLILLAQQMKNLEVFMHVSTAYAYCNRKHIDEVVYPPPVDPKKLIDSLEWMDDGLVNDITPKLIGDRPNTYIYTKALAEYVVQQEGAKLNVAIVRPSIVGASWKEPFPGWIDNFNGPSGLFIAAGKGILRTIRASNNALADLVPVDVVVNMSLAAAWYSGVNRPRNIMVYNCTTGSTNPFHWGEVEYHVISTFKRNPLEQAFRRPNVNLTSNHLLYHYWIAVSHKAPAFLYDIYLRMTGRSPRMMKTITRLHKAMVFLEYFTSNSWVWNTENVNMLMNQLNPEDKKTFNIDVRQLHWAEYIENYCLGTKKYVLNEEMSGLPAARKHLNKLRNIRYGFNTILVILIWRIFIARSQMARNIWYFVVSLCYKFLSYFRASSTMRY [FAR1]	-0.254	0.0485	0.111	-0.0436	51.7	51.2
MMRFMLLFSRQGKLRLQKWYLATSDKERKKMVRELMQVVLARKPKMCSFLEWRDLKVVYKRYASLYFCCAIEGQDNELITLELIHRYVELLDKYFGSVCELDIIFNFEKAYFILDEFLMGGDVQDTSKKSVLKAIEQADLLQEEDESPRSVLEEMGLA [AP1S1]	-0.154	-1.3	-0.738	-0.0672	53	–
MENSTTTISREELEELQEAFNKIDIDNSGYVSDYELQDLFKEASLPLPGYKVREIVEKILSVADSNKDGKISFEEFVSLMQELKSKDISKTFRKIINKREGITAIGGTSTISSEGTQHSYSEEEKVAFVNWINKALENDPDCKHLIPMNPNDDSLFKSLADGILLCKMINLSEPDTIDERAINKKKLTPFTISENLNLALNSASAIGCTVVNIGASDLKEGKPHLVLGLLWQIIKVGLFADIEISRNEALIALLNEGEELEELMKLSPEELLLRWVNYHLTNAGWHTISNFSQDIKDSRAYFHLLNQIAPKGGEDGPAIAIDLSGINETNDLKRAGLMLQEADKLGCKQFVTPADVVSGNPKLNLAFVANLFNTYPCLHKPNNNDIDMNLLEGESKEERTFRNWMNSLGVNPYINHLYSDLADALVIFQLYEMIRVPVNWSHVNKPPYPALGGNMKKIENCNYAVELGKNKAKFSLVGIAGQDLNEGNSTLTLALVWQLMRRYTLNVLSDLGEGEKVNDEIIIKWVNQTLKSANKKTSISSFKDKSISTSLPVLDLIDAIAPNAVRQEMIRRENLSDEDKLNNAKYAISVARKIGARIYALPDDLVEVKPKMVMTVFACLMGKGLNRIK [PLS1]	0.301	0.863	0.264	-0.0585	52.6	53.7
PRSS21	0.0531	0.469	0.197	-0.176	52.9	52.9
ALDH6A1	0.179	0.0292	0.822	-0.072	49.3	49.9
MAVTDSLSRAATVLATVLLLSFGSVAASHIEDQAEQFFRSGHTNNWAVLVCTSRFWFNYRHVANTLSVYRSVKRLGIPDSHIVLMLADDMACNPRNPKPATVFSHKNMELNVYGDDVEVDYRSYEVTVENFLRVLTGRIPPSTPRSKRLLSDDRSNILIYMTGHGGNGFLKFQDSEEITNIELADAFEQMWQKRRYNELLFIIDTCQGASMYERFYSPNIMALASSQVGEDSLSHQPDPAIGVHLMDRYTFYVLEFLEEINPASQTNMNDLFQVCPKSLCVSTPGHRTDLFQRDPKNVLITDFFGSVRKVEITTETIKLQQDSEIMESSYKEDQMDEKLMEPLKYAEQLPVAQIIHQKPKLKDWHPPGGFILGLWALIIMVFFKTYGIKHMKFIF [PIGK]	-0.134	1.4	0.424	-0.0814	53.5	53.5
